The record followed here is the supplement of paper PMC11196671.

This data set is described as follows: PET hydrolysis product formed (TPA+MHET+BHET, UV-Vis) per mg enzyme (mmol/mg enzyme); higher = more PET depolymerisation activity; extreme values may be limits of the assay. To be noted: 24 h. The method, then: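 Purified PET hydrolases, 2.5 ug enzyme on 3.5 mg amorphous PET film (aFilm) or crystalline PET powder (cryPow) in 0.5 mL of 50 mM buffer (NaCitrate pH 4.5/5.5, NaPhosphate 6.5/7.5, glycine 8.5/9.5) at 60 or 70 C with shaking for 24 h. Total aromatic product by UV-Vis (260/280 nm, blank-subtracted, normalised per mg enzyme) and individual TPA, MHET, BHET concentrations by UHPLC-DAD at 240 nm; duplicate reactions.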

The mark [1] stands for this setting: PET substrate: aFilm, 60 °C, pH 4.5.
[2] abbreviates: PET substrate: aFilm, 60 °C, pH 5.5.
Setting [3] is: PET substrate: aFilm, 60 °C, pH 6.5.
[4] abbreviates: PET substrate: aFilm, 60 °C, pH 7.5.
The mark [5] stands for this setting: PET substrate: aFilm, 60 °C, pH 8.5.
Where [6] appears, read: PET substrate: aFilm, 60 °C, pH 9.5.
The mark [7] stands for this setting: PET substrate: aFilm, 70 °C, pH 4.5.
[8] abbreviates: PET substrate: aFilm, 70 °C, pH 5.5.
The mark [9] stands for this setting: PET substrate: aFilm, 70 °C, pH 6.5.
Setting [10] is: PET substrate: aFilm, 70 °C, pH 7.5.
Where [11] appears, read: PET substrate: aFilm, 70 °C, pH 8.5.
Setting [12] is: PET substrate: aFilm, 70 °C, pH 9.5.
The mark [13] stands for this setting: PET substrate: cryPow, 60 °C, pH 4.5.
Where [14] appears, read: PET substrate: cryPow, 60 °C, pH 5.5.
The mark [15] stands for this setting: PET substrate: cryPow, 60 °C, pH 6.5.
Setting [16] is: PET substrate: cryPow, 60 °C, pH 7.5.
Where [17] appears, read: PET substrate: cryPow, 60 °C, pH 8.5.
Where [18] appears, read: PET substrate: cryPow, 60 °C, pH 9.5.
Setting [19] is: PET substrate: cryPow, 70 °C, pH 4.5.
Where [20] appears, read: PET substrate: cryPow, 70 °C, pH 5.5.
[21] abbreviates: PET substrate: cryPow, 70 °C, pH 6.5.
Setting [22] is: PET substrate: cryPow, 70 °C, pH 7.5.
Where [23] appears, read: PET substrate: cryPow, 70 °C, pH 8.5.
Where [24] appears, read: PET substrate: cryPow, 70 °C, pH 9.5.

± gives the standard deviation of the averaged measurements.

In the case of “QTNPYARGPNPTAASLEASAGPFTVRSFTVSRPSGYGAGTVYYPTNAGGTVGAIAIVPGYTARQSSIKWWGPRLASHGFVVITIDTNSTFDYPSSRSSQQMAALRQVASLNGDSSSPIYGKVDTARMGVMGHSMGGGASLRSAANNPSLKAAIPQAPWDSQTNFSSVTVPTLIFACENDSIAPVNSHALPIYDSMSRNAKQFLEINGGSHSCANSGNSNQALIGKKGVAWMKRFMDNDTRYSTFACENPNSTAVSDFRTANCS [DuraPETase]”, the “PET hydrolysis product formed” value is 0 under setting [1]; 0 under setting [2]; 0 under setting [3]; 0.0929 ± 0.001 under setting [4]; 0.0536 ± 0.017 under setting [5]; 0.126 ± 0.074 under setting [6]. For the same sequence, the “PET hydrolysis product formed” value by setting is: under setting [7], 0; under setting [8], 0; under setting [9], 0; under setting [10], 0.00371 ± 0.0053; under setting [11], 0.00439 ± 0.0062; under setting [12], 0.0201 ± 0.0018. For the same sequence, the “PET hydrolysis product formed” value by setting is: under setting [13], 0; under setting [14], 0; under setting [15], 0.0167 ± 0.003; under setting [16], 0.0809 ± 0.0013; under setting [17], 0.0578 ± 0.007; under setting [18], 0.0891 ± 0.015. Further, the “PET hydrolysis product formed” value under setting [19] came out at 0; the “PET hydrolysis product formed” value under setting [20] turned out to be 0; the “PET hydrolysis product formed” value under setting [21] is 0; the “PET hydrolysis product formed” value under setting [22] came out at 0.0465 ± 0.014; the “PET hydrolysis product formed” value under setting [23] stood at 0.0236 ± 0.0064; the “PET hydrolysis product formed” value under setting [24] was 0.
Take “SNPYQRGPNPTRSALTADGPFSVATYTVSRLSVSGFGGGVIYYPTGTSLTFGGIAMSPGYTADASSLAWLGRRLASHGFVVLVINTNSRFDGPDSRASQLSAALNYLRTSDPSAVRARLDANRLAVAGHSMGGGATLRIAEQNPSLKAAIPLTPWHTQKTFNTSVPVLIVGAEADTVAPVSQHAIPFYQNLPSTTPKVYVELCNASHIAPNSNNAAISVYTISWMKLWVDNDTRYRQFLCNVNDPALCDFRTNNRHCQ [LCC-ICCG DAQI]”: the “PET hydrolysis product formed” value is, setting by setting: under setting [1], 0.0166 ± 0.00087; under setting [2], 0.125 ± 0.026; under setting [3], 0.232 ± 0.055; under setting [4], 1.37 ± 0.25; under setting [5], 0.167 ± 0.0061; under setting [6], 0.87 ± 0.012. In addition, the “PET hydrolysis product formed” value amounted to 0 under setting [7]; 0.0923 ± 0.0019 under setting [8]; 0.205 ± 0.025 under setting [9]; 2.08 ± 0.32 under setting [10]; 0.1 ± 0.021 under setting [11]; 0.859 ± 0.11 under setting [12]. The “PET hydrolysis product formed” value under setting [13] is 0.0113 ± 0.00097; the “PET hydrolysis product formed” value under setting [14] was 0.0632 ± 0.0075; the “PET hydrolysis product formed” value under setting [15] came to 0.0902 ± 0.0042; the “PET hydrolysis product formed” value under setting [16] stood at 0.173 ± 0.029; the “PET hydrolysis product formed” value under setting [17] stood at 0.0738 ± 0.0022; the “PET hydrolysis product formed” value under setting [18] worked out at 0.1163 ± 0.00055. Also, the “PET hydrolysis product formed” value runs as follows: under setting [19], 0; under setting [20], 0.0244 ± 0.0029; under setting [21], 0.0648 ± 0.012; under setting [22], 0.193 ± 0.02; under setting [23], 0.0669 ± 0.0013; under setting [24], 0.132 ± 0.011.
Consider “SNPYQRGPNPTRSALTADGPFSVATYTVSRLSVSGFGGGVIYYPTGTSLTFGGIAMSPGYTADASSLAWLGRRLASHGFVVLVINTNSRFDGPDSRASQLSAALNYLRTSSPSAVRARLDANRLAVAGHSMGGGGTLRIAEQNPSLKAAVPLTPWHTDKTFNTSVPVLIVGAEADTVAPVSQHAIPFYQNLPSTTPKVYVELCNASHIAPNSNNAAISVYTISWMKLWVDNDTRYRQFLCNVNDPALCDFRTNNRHCQ [LCC-ICCG]”, for which the “PET hydrolysis product formed” value runs as follows: under setting [1], 0.00176 ± 0.0035; under setting [2], 0.126 ± 0.044; under setting [3], 0.327 ± 0.047; under setting [4], 1.42 ± 0.13; under setting [5], 0.142 ± 0.024; under setting [6], 0.885 ± 0.11. Also, the “PET hydrolysis product formed” value is, setting by setting: under setting [7], 0; under setting [8], 0.109 ± 0.03; under setting [9], 0.165 ± 0.029; under setting [10], 1.92 ± 0.32; under setting [11], 0.107 ± 0.027; under setting [12], 0.901 ± 0.076. Further, the “PET hydrolysis product formed” value was found to be 0 under setting [13]; 0.0652 ± 0.012 under setting [14]; 0.09 ± 0.013 under setting [15]; 0.184 ± 0.032 under setting [16]; 0.0728 ± 0.0063 under setting [17]; 0.125 ± 0.028 under setting [18]. The “PET hydrolysis product formed” value worked out at 0 under setting [19]; 0.031 ± 0.0079 under setting [20]; 0.0781 ± 0.017 under setting [21]; 0.2 ± 0.024 under setting [22]; 0.0667 ± 0.0095 under setting [23]; 0.131 ± 0.018 under setting [24].
